{"source": "paper PMC2230540", "about": "(The Journal of General Physiology, 1999)", "proteins": {"B1": {"name": "EriC, Escherichia coli ClC-type Cl- channel homologue, product of the yadQ gene (natural protein, UniProt P37019 1-473, looked up)", "chain": "MKTDTPSLETPQAARLRRRQLIRQLLERDKTPLAILFMAAVVGTLVGLAAVAFDKGVAWLQNQRMGALVHTADNYPLLLTVAFLCSAVLAMFGYFLVRKYAPEAGGSGIPEIEGALEDQRPVRWWRVLPVKFFGGLGTLGGGMVLGREGPTVQIGGNIGRMVLDIFRLKGDEARHTLLATGAAAGLAAAFNAPLAGILFIIEEMRPQFRYTLISIKAVFIGVIMSTIMYRIFNHEVALIDVGKLSDAPLNTLWLYLILGIIFGIFGPIFNKWVLGMQDLLHRVHGGNITKWVLMGGAIGGLCGLLGFVAPATSGGGFNLIPIATAGNFSMGMLVFIFVARVITTLLCFSSGAPGGIFAPMLALGTVLGTAFGMVAVELFPQYHLEAGTFAIAGMGALLAASIRAPLTGIILVLEMTDNYQLILPMIITGLGATLLAQFTGGKPLYSAILARTLAKQEAEQLARSKAASASENT"}}, "biological_target": "the molecule itself", "test": "cross-linking", "data": [{"protein": "B1", "values": [{"measurement": "stoichiometry N", "result": 2}]}]}
